Test results from patent US20240270826A1 (NATIONAL RESEARCH COUNCIL OF CANADA, published 2024).

B1: NRCoV2-18 VHH (VHH)
VHH: EVQLVESGGGLVQAGGSLRLSCVASGITISGYNMAWWRQTRGKQTERVAFINSGGSTTYSDSVKGRFTISRDNGKNTAYLQMNSLNAEDTADYFCSLHTSHDYWGQGTQVTVSS
B2: NRCoV2-20 VHH (VHH)
VHH: EVQLQQSGGGLVQPGGSLRLSCAASGRTFSNYVVGWFRQAPQAPGKDHEFVAVISGSDTETYYADSVKGRFTISRDNAKNTVYLQMNSLKPEDTAVYYCAADRGMSYYYTRATEYYYWGQGTQVTVSS
B3: NRCoV2-15 VHH (VHH)
VHH: EVQLVSSGGGLVEAGGSLRLSCIASGSTSGRNTMGWFRQAPGKQREWVAIVSTSGATNYAGSVKGRFTLSRDNAKNAVYLQMNNLKPEDTAVYYCYAAYGGGGDYWGQGTQVTVSS
B4: NRCoV2-10 VHH (VHH)
VHH: QLQLQESGGGLVQPGGSLTLSCAASGNTFSRSNMHWYRQAPGAQREWVAAISSRGISTYAYSAKGRFTISRDNAKNTVSLQMNSLKPEDTAVYYCYAADDLGDYWGQGTQVTVSS
B5: NRCoV2-05 VHH (VHH)
VHH: EVKLVQSGGGLVQPGGSLRLSCAASGFIFSNYAMNWVRQAPGKGLEWVSGINSGGGDTRYADSVKGRFTVSRDNAKNTLYLQMNSLKPEDTGVYYCSKGPVSSYYGSGYDYRGQGTQVTVSS
B6: NRCoV2-MRed05 VHH (VHH)
VHH: EVQLVESGGGLVQPGGSLRLSCAASGFTLDYYAIGWFRQAPGKEREGVSCISSSDGSTLYADSVKGRFTISRDNAKNTVYLQMNSLKPEDTAVYYCATGPQAYYSGSYYFQCPQAGMDYWGKGTQVTVSS
B7: NRCoV2-14 VHH (VHH)
VHH: EVQLVSSGGGLVQAGGSLRLSCEASGTTFSHYAVGWYRQAPGKQREWVASISVFGSTTYGGSVAGRFTISRDNDKNTVDLQMNSLKPEDTAVYYCHAVNADIGGDYWGQGTQVTVSS
B8: NRCoV2-MRed04 VHH (VHH)
VHH: EVQLVESGGGLVQPGRSLRLSCAASGNSFSISTMGWFRQAPGKERELVASIWSDTTTSYADSVKGRFTISTDNTRTKVYLQMSSLNPEDTAVYYCAADRGFVVRGQYDYWGQGTQVTVSS
B9: NRCoV2-MRed11 VHH (VHH)
VHH: EVQLVESGGGLVQAGGSLRLSCAASGFTFSSYAMSWHRQAPGKGLEWVSAINSGGGSTSYADSVKGRFAISRDNAKNTLYLQMNSLKPEDTAVYYCATTISDGSSWSTKSYRGQGTQVTVSS
B10: NRCoV2-S2G4 VHH (VHH)
VHH: QVQLVQSGGGLVQAGGSLTLSCAPSGSTFSGYATNWYRQAPGKQRELVATISSDGDKNYADSVKGRFTISRDNAKNTVYLQMNSLKPEDTAVYYCNKHWWTGDWWGQGTQVTVSS
B11: NRCoV2-MRed18 VHH (VHH)
VHH: EVQLVESGGGLVQPGGSLRLSCAASTTVFGRNAMGWYRQAPGKERELVATVSDGGTPNYADSVKGRFTISRDNAKNTIYLQMNSLEPEDTAVYYCNYYNYYYGRNFWGQGTQVTVSS
B12: NRCoV2-MRed22 VHH (VHH)
VHH: EVQLVESGGGLVQPGGSLRLSCAASGSVFASNAMGWYRQAPGKQRELVATISSRGSTNYADSVKGRFTISRDNAKNTVYLQMNSLGPEDTAVYYCNAREFTGFDYWGQGTQVTVSS
B13: NRCoV2-MRed19 VHH (VHH)
VHH: EVQLVESGGGLVQPGGSLRLSCAASTIIFKGQTMGWFRQAPGNERELVATMTTSGSANYADSVKGRFTISRDNEKTVTLQMNSLKPEDTALYYCYMHSVYYGIDYWGKGTQVTVSS
B14: NRCoV2-MRed25 VHH (VHH)
VHH: EVQLVESGGGLVQAGGSLRLSCAASGHTFSRYGMGWFRQAPGKEREFVAAISWRGDSTYYRDSVNGRFTISRDNAKNTVYLGMNSLKPEDTAVYYCAAEMWGTATIVASRYTYWGQGTQVTVSS
B15: NRCoV2-MRed20 VHH (VHH)
VHH: EVQLVESGGGSVQAGGSLRLSCAASGLSFSSYDMGWFRQAPGKEREFVAAIRESGSGTYYADSVKGRFTISRDNAKNTVYLQVSSLKPEDTAVYTCAAKPPFYGSGTYSTPRAYLYWGQGTQVTVSS
B16: NRCoV2-SR04 VHH (VHH)
VHH: QVQLVESGGGLVQAGGSLRLSCAASGRTFSSHTVGWYRQAPGKQRDLVAAISMGGNTNYADYADSVKGRFTISRDNAKNTLYLQMNSLKPEDTAVYYCNTAALVGNRLLPMATITWGQGTQVTVSS
B17: NRCoV2-S2A4 VHH (VHH)
VHH: QVQLVQSGGGLVQAGGSLRLSCAVSGSPFRSNVMEWYRQAPGKQRELVASISTGGSRTYTDSVKGRFTISRDNAKNEAFLQMNSLKPEDTAVYYCHAAARDSHGIYLLDTWGQGTQVTVSS
B18: NRCoV2-SR01 VHH (VHH)
VHH: EVQLVQSGGGSVQAGGSLRLSCVASGFTFDNYAIGWFRQAPGKEREGVSCISGNGGVTIYADSVKGRFTISRDNAKNLVYLQMNSLKPEDTAVYYCAATGIRSTWSVYGCSRLAGPYDYWGQGTQVTVSS
B19: NRCoV2-SR13 VHH (VHH)
VHH: EVQLVESGGGLVTTGGSLRLSCATSGSRFGSKHMAWYRQAPGKQRDLVAAISSGGSTHYGSSVKGRFTISRDNAKSTVYLQMNSLNPEDTAVFYCNMGGWDYRSNTYIPGSRSDYWGQGTQVTVSS
B20: NRCoV2-SR03 VHH (VHH)
VHH: AVQLVDSGGGLVQAGGSLRLSCAASGSIFSNNHMGWYRQAPGKQRELVAAISSGGKTNYADFAKGRFTISRDNAKNMVYLQMNSLKPEDTAVYYCNRGGWEYRSSYYIMGPHWGQGTQVTVSS
B21: NRCoV2-SR16 VHH (VHH)
VHH: QVQLVQSAGGLVQAGGSLRLSCVVSGTTFSRYHMGWHRQAPGKQRDFVAGISTSGAVTYADSAKGRFTISRDNAKNTVYLEMNSLKLEDTALYYCNTGGWDYRSSTFIMGLNWGQGTQVTVSS
B22: NRCoV2-SR02 VHH (VHH)
VHH: EVQLVDSGGGLVQAGGSLRLSCTASEFTLNYYSIGWFRQSPGKEREGVSCIRYSGGGIDYADSVKGRFTISRDNAKNTVYLTMNSLKPEDTAVYYCAADRLYSRACPTAGGRNYWGQGTQVTVSS

Target: Human SARS-CoV-2_Wuhan S (SmT1) (SARS-CoV-2 (Wuhan), UniProt P0DTC2 14-1208)
Test: flow cytometry SVNA, VHH vs biotin-S binding to Vero E6 ACE2

Binder	IC50 [nM]	IC99 [nM]	Imax % [%]
B1	8.9	133	51
B2	5.1	1370	43
B3	12.1	233	44
B4	16.1	121	50
B5	9.5	14.2	97
B6	15	184	88
B7	21.3	17400	54
B8	6.1	124	53

Target: SARS-CoV spike (S) (SARS-CoV, UniProt P59594 14-1195)
Test: SPR, VHH over immobilised S

Binder	binding result	Kd [nM]	koff [s⁻¹]	kon [M⁻¹ s⁻¹]
B9	no binding			
B10		0.799	0.000735	920000
B11		22.5	0.00677	300000
B12	no binding			
B13		24.6	0.00614	249000
B14		2.29	5.01e-05	21800
B15		10.7	0.00406	380000

Target: T1, Human SARS-CoV-2_Wuhan S (SmT1) (SARS-CoV-2 (Wuhan), UniProt P0DTC2 14-1208)
Test: SPR, VHH over immobilised S

Binder	Kd [nM]	koff [s⁻¹]	kon [M⁻¹ s⁻¹]
B9	6.2	0.000283	45700
B10	0.232	0.000207	893000
B11	6.03	0.00119	197000
B12	0.506	0.000176	347000
B13	9.07	0.00118	131000
B14	1.02	0.000115	112000
B15	0.0918	1.46e-05	160000

Target: T2, SARS-CoV-2 spike trimer S (Wuhan, SmT1) (SARS-CoV-2 Wuhan)
T2 construct: extracellular domain
Test: SPR, antigen on chip

Binder	Kd [nM]	koff [s⁻¹]	kon [M⁻¹ s⁻¹]
B16	0.14	0.000335	2.39e+06
B17	12.8	0.000446	34900
B18	0.445	0.00123	2.77e+06
B19	2.62	0.00481	1.83e+06
B20	1.01	0.00102	1.01e+06
B21	1.82	0.0012	657000
B22	0.59	0.000571	967000

Target: T3, SARS-CoV-2 S1 (aa16-685) (Wuhan) (SARS-CoV-2 Wuhan, UniProt P0DTC2 16-685)
T3 construct: NRC; FLAG, 6xHis tags
Test: SPR, antigen on chip

Binder	Kd [nM]	koff [s⁻¹]	kon [M⁻¹ s⁻¹]	binding result
B16	0.226	0.000493	2.18e+06	
B17				no binding
B18	0.437	0.00158	3.63e+06	
B19	2.43	0.00545	2.25e+06	
B20	1.13	0.00103	905000	
B21	1.55	0.00115	739000	
B22	0.53	0.000555	1.05e+06	

Target: T4, SARS-CoV-2 S2 (aa686-1208) (Wuhan) (SARS-CoV-2 Wuhan, UniProt P0DTC2 686-1208)
T4 construct: NRC; FLAG, 6xHis tags
Test: SPR, antigen on chip

Binder	binding result	Kd [nM]	koff [s⁻¹]	kon [M⁻¹ s⁻¹]
B16	no binding			
B17		14.7	0.000414	28100
B18	no binding			
B19	no binding			
B20	no binding			
B21	no binding			
B22	no binding			

Target: T1, Human SARS-CoV-2_Wuhan S (SmT1)
Test: SPR, VHH over immobilised S
Remark: another data set of the same source

Binder	Kd [nM]
B9	6.2
B10	0.23
B11	6.03
B12	0.51
B13	9.07
B14	1.02
B15	0.092
